Reference: patent US20220064286A1

Columns and labels:
[1] = target: hTIGIT mutant Y113A (human) (UniProt Q495A1); assay: SPR (BIACORE) KD normalized to WT, N=2
[2] = target: hTIGIT mutant N70A (human) (UniProt Q495A1); assay: SPR (BIACORE) KD normalized to WT, N=2
[3] = target: hTIGIT mutant Q53A (human) (UniProt Q495A1); assay: SPR (BIACORE) KD normalized to WT, N=2
[4] = target: hTIGIT mutant Y113A (human) (UniProt Q495A1); assay: SPR (BIACORE), N=2
[5] = target: hTIGIT mutant N70A (human) (UniProt Q495A1); assay: SPR (BIACORE), N=2
[6] = target: hTIGIT mutant Q53A (human) (UniProt Q495A1); assay: SPR (BIACORE), N=2
[7] = target: hTIGIT mutant L73A (human) (UniProt Q495A1); assay: SPR (BIACORE) KD normalized to WT, N=2
Sequence of hTIGIT mutant L73A (human) (Q495A1 22-141 L73A limits assumed): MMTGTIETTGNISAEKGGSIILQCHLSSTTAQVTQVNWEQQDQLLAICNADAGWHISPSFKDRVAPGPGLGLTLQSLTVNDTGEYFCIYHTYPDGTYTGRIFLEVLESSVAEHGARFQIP

[8] = target: hTIGIT mutant H76A (human) (UniProt Q495A1); assay: SPR (BIACORE) KD normalized to WT, N=2
Sequence of hTIGIT mutant H76A (human) (Q495A1 22-141 H76A limits assumed): as the sequence (Q495A1 22-141 L73A limits assumed) above, with A52L, H55A counted along it

[9] = target: hTIGIT mutant L73A (human) (UniProt Q495A1); assay: SPR (BIACORE), N=2
[10] = target: hTIGIT mutant H76A (human) (UniProt Q495A1); assay: SPR (BIACORE), N=2

Sequence of hTIGIT mutant Y113A (human) (Q495A1 22-141 Y113A limits assumed): as the sequence (Q495A1 22-141 L73A limits assumed) above, with A52L, Y92A counted along it
Sequence of hTIGIT mutant Q53A (human) (Q495A1 22-141 Q53A limits assumed): as the sequence (Q495A1 22-141 L73A limits assumed) above, with Q32A, A52L counted along it
Sequence of hTIGIT mutant N70A (human) (Q495A1 22-141 N70A limits assumed): as the sequence (Q495A1 22-141 L73A limits assumed) above, with N49A, A52L counted along it

Row | Binder | Binding affinity drop vs. WT [1] | Binding affinity drop vs. WT [2] | Binding affinity drop vs. WT [3] | Kd [4] | Kd [5] | Kd [6] | Binding affinity drop vs. WT [7] | Binding affinity drop vs. WT [8] | Kd [9] | Kd [10]
1 | 4.1A4.C96S.Q1E (antibody, V domains shown) VH: EVQLVQSGSELKKPGASVKVSCKASGYTLTNYPMNWVRQAPGRGLEWMGWINTNTGSPAYAQDFTERFVFSLDTSVTTAYLQISSLKAEDTAVYYCARTAITSVYHFDYWGQGTLVTVSS VL: DIQLTQSPSFLSASVGDRVTITCRASQGISSYLAWYQQKPGKAPRVLIYGATTLQSGVPSRFSGSESGTEFTLTISSLQPEDLATYYCQKLNSHPSSFGQGTKVEIK | > 16.2 fold | > 16.2 fold | > 16.2 fold | > 500 nM | > 500 nM | > 500 nM |  |  |  | 
2 | h6B2.L2H5 (antibody, V domains shown) VH: EVTLKESGPALVKPTQTLTLTCTFSGFSLSTYGMGVSWIRQPPGKALEWLASIWWNGNTYYNPSLKSRLTITKDTSKNQVVLTMTNMDPVDTATYYCAHTGGAVITWFAYWGQGTLVTVSS VL: DIQMTQSPSSLSASVGDRVTITCKASQSVGKNIAWYQQKPGKAPKLLIYYASNRYTGVPSRFSGSGSGTDFTFTISSLQPEDIATYYCQHIYNSPYPFGQGTKVEIK |  |  |  |  |  |  | > 143 fold | > 143 fold | > 100 nM | > 100 nM
3 | 7.4A3.C96S.Q1E (antibody, V domains shown) VH: EVQLVQSGSDLKKPGASVRVSCKASGYTFTSYPMNWVRQAPGHGLEWMGWINTNTGNPTYVQGFTGRFVFSLDTSVNTAYLQISSLKAEDTAVYFCARTGGHTYDSYAFDVWGQGTMVTVSS VL: DIQLTQSPTFLSASVGDRVTITCRASQVISSSLAWYQQNPGKAPKLLIYAASTLQSGVPSRFSGSGSGTEFTLTISSLQPEDFVTYYCQHLHGYPSNFGQGTKVEIK | > 56 fold |  | > 56 fold | > 100 nM |  | > 100 nM |  |  |  | 
